This assay deals with H3K9me3 peptide NH2-…(me3)STGG-minipeg-K(5-fam)-NH2. Put plainly: fluorescence polarisation.
For the substance “CBX1 chromodomain V22E/K25E/D59S (domain or fragment)”, the Kd came to 210 nM. The figure for “CBX1 chromodomain V22E/K25S/D59F (domain or fragment)” is 320 nM. “CBX1 chromodomain, wild type (domain or fragment)” gave a Kd of 2780 nM.

Values taken from publication PMC6221542.
